Key:
[1] = tested on: TAC-induced mouse aneurysm model; test: TAC (transverse aortic constriction)-induced aneurysm model, i.p. recombinant AGGF1 or AGGF1-RDDdel protein; type: in vivo, C57BL/6 mice
Excerpt: RCAs are harvested after 21 days for the histological staining. […] The bar graphs at the bottom show the intima thickness (1st graph), the adventitia thickness (2nd graph), the total arterial wall thickness (3rd graph), a media cell density (4th graph), and the adventitia cell density (5th graph). […] The bar graphs on the right show the percentage of the collagen area and the percentage of the α-SMA positive area. * P<0.05; **, P<0.01; ***, P<0.001; a mouse sample size n=6/group.
RCAs are harvested after 21 days for the histological staining and the western blot analysis. […] Bar graphs below show the percentage of the MCP1-positive cell area and the CD68-positive cell area. […] The β-actin serves as a loading control. […] The β-actin serves as a loading control. *, P<0.05; **, P<0.01; *** P<0.001; a mouse sample size n=6/group, other sample sizes n=4/group.
The bar graph on the right illustrates the luminal diameter of the ascending aorta. An ascending aortic tissue is harvested after 21 days for the histological staining. […] The bar graphs below display the intimal thickness (1st graph), the adventitia thickness (2nd graph), the total arterial wall thickness (3rd graph), the medial cell density (4th graph), and the adventitia cell density (5th graph). *, P<0.05; **, P<0.01; ***, P<0.001; a mouse sample size n=6/group.
The ascending aortic tissue is harvested for the histological staining 21 days after the surgery. […] Below are quantitative bar graphs showing the quantitation of the percentage of the positive area for each corresponding stain. *, P<0.05; **, P<0.01; *** P<0.001; a mouse sample size n≥6/group.
FIG. 7 depicts that the intraperitoneal injection of the purified human AGGF1 protein, dependent on the RDD sequence, attenuates a TAC-induced ascending aortic TGF-β1 maturation and a signaling pathway, as well as the ERK1/2 signaling pathway. The RCAs are harvested after 21 days for the western blot analysis. […] The β-actin serves as a loading control. […] The β-actin serves as a loading control. *, P<0.05; **, P<0.01; ***, P<0.001; sample size n=4/group.
The research team obtained blood vessel samples from the thoracic aorta of 8 normal individuals and 8 patients with the thoracic aortic aneurysm from the hospital. […] Subsequently, the research divided C57BL/6 mice into 6 groups: after sham surgery, they were divided into a buffer group, an AGGF1 group, and an AGGF1-RDD^del group (Sham+buffer, Sham+AGGF1, Sham+AGGF1-RDD^del), and after the TAC surgery, they were divided into a buffer group, an AGGF1 group, and an AGGF1-RDD^del group (TAC+buffer, TAC+AGGF1, TAC+AGGF1-RDD^del), with each group having mice ≥6. Buffer was protein elution solution. 21 days after the TAC surgery, Doppler ultrasound was used to detect vascular luminal diameter, and carotid artery and aorta were collected for histological staining and Western blot to evaluate the effect of AGGF1. Starting from the second day after the surgery, recombinant AGGF1 protein or AGGF1-RDD^del protein was administered through intraperitoneal injection in the mice, with the same dose of EB as control, once every 2 days for 3 weeks. The protein dosage was 0.5 mg/kg.

[2] = molecular target: T1, integrin α7 / LAP-TGF-β1 interaction (Homo sapiens, UniProt Q13683); test: Co-IP of LAP-TGF-β1-GFP and integrin α7-FLAG in HEK293T cells; type: cell-based; details: AGGF1 overexpression or stimulation for 24 hours
T1 construct: FLAG; GFP; expressed in transfected cells; host or cells: HEK293T
T1 sequence (Q13683 34-1181): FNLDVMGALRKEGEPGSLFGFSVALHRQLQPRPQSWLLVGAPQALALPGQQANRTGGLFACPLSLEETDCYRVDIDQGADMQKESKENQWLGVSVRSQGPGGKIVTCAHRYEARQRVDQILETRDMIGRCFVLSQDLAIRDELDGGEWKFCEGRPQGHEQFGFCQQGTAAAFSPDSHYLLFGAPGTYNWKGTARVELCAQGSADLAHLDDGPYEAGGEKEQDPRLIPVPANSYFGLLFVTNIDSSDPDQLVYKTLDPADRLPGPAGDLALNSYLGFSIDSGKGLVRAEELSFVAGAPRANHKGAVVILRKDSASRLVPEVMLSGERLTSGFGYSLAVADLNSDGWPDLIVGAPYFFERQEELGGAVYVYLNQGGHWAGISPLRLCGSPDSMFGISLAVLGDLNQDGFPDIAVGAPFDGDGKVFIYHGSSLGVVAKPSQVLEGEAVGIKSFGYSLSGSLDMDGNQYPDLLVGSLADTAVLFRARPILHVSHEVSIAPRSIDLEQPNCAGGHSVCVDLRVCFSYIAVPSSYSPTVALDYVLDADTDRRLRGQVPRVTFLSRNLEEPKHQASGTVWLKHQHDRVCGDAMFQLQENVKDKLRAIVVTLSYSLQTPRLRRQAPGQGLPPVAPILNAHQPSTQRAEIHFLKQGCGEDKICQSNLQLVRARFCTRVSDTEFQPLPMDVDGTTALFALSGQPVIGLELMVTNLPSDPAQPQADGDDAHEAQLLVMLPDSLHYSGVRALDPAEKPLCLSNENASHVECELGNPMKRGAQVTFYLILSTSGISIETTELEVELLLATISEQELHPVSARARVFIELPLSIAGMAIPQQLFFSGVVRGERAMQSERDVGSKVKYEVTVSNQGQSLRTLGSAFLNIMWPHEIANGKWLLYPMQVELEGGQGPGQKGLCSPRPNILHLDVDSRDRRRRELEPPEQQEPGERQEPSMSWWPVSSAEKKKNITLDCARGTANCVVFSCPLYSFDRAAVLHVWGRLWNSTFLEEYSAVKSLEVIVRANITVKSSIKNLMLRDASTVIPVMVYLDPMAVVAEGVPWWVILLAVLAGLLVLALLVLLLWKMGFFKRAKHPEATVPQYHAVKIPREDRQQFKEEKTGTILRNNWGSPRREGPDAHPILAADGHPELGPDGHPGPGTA
T1 sequence (P05556 21-798 partner): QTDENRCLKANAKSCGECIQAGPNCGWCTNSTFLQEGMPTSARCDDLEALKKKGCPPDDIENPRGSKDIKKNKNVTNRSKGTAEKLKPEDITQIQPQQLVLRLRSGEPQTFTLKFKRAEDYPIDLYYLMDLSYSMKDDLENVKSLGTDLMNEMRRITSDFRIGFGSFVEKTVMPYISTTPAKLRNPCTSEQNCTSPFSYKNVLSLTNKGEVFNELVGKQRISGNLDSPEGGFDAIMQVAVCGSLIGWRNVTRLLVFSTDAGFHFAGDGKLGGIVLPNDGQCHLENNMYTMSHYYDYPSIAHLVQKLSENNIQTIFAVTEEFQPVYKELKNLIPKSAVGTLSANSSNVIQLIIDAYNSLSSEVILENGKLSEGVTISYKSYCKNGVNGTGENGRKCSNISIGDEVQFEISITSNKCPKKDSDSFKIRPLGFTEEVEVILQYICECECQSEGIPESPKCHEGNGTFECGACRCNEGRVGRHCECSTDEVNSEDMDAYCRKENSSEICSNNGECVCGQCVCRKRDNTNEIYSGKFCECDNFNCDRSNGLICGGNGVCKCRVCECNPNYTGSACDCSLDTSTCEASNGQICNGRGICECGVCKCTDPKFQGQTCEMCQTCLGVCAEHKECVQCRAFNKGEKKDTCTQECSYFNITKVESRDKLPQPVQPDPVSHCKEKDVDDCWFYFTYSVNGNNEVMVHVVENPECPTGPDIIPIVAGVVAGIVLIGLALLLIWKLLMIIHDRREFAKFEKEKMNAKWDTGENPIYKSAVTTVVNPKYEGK
Excerpt: FIG. 10 illustrates that the integrin α7 interacts with LAP-TGF-β1 via an RGD sequence, and AGGF1 enhances this interaction. […] Quantitative data of a LAP-TGF-β1-GFP/α7-FLAG ratio are plotted as bar graphs on the right. […] Quantitative data of the LAP-TGF-β1-GFP/α7-FLAG ratio are plotted as bar graphs on the right. *, P<0.05; **, P<0.01; ***, P<0.001; n=3/group.

[3] = tested on: aortic aneurysm induced by Fbn1^C1041G/+ mutation; test: AGGF1 treatment of spontaneous aortic aneurysm in Fbn1 C1041G/+ mutant mice; type: in vivo
Excerpt: FIG. 13 depicts an AGGF1 treatment for a spontaneous aortic aneurysm in FbnC1041G/+ mutant mice. […] The bar graph on the right illustrates the luminal diameter of the ascending aortic. […] The GAPDH serves as a loading control. […] The bar graphs on the right indicate the percentage of the positive area for the respective immunostaining quantification. *, P<0.05; **, P<0.01; ***, P<0.001; n=8/group for mouse studies, other sample sizes n=4/group.
The present disclosure obtained the previously published Fbn1^C1041G/+ mutant mice from Tongji Hospital. Compared with the wild-type mice, we detected spontaneous aortic expansion in these mice at week 10, resulting in the aortic aneurysm. After obtaining these mice, at week 10, mice were intraperitoneally injected with Buffer or AGGF1 protein, and the injection continued until week 18. At week 18, mice underwent ultrasound examination, then were euthanized and their aortas were collected for Western Blotting experiments and histochemical staining.

[4] = after TAC vs buffer, 0.5 mg/kg i.p. once every 2 days for 3 weeks, day 21
[5] = after TAC, 0.5 mg/kg i.p., day 21
[6] = regardless of sham or TAC surgery, 0.5 mg/kg i.p.

B1: AGGF1 protein: recombinant human AGGF1 protein with His tag, SEQ ID NO:1, expressed from pet28-AGGF1 in Escherichia coli BL21 (DE3) (protein, listed as Homo sapiens)
chain: MASEAPSPPRSPPPPTSPEPELAQLRRKVEKLERELRSCKRQVREIEKLLHHTERLYQNAESNNQELRTQVEELSKILQRGRNEDNKKSDVEVQTENHAPWSISDYFYQTYYNDVSLPNKVTELSDQQDQAIETSILNSKDHLQVENDAYPGTDRTENVKYRQVDHFASNSQEPASALATEDTSLEGSSLAESLRAAAEAAVSQTGFSYDENTGLYFDHSTGFYYDSENQLYYDPSTGIYYYCDVESGRYQFHSRVDLQPYPTSSTKQSKDKKLKKKRKDPDSSATNEEKDLNSEDQKAFSVEHTSCNEEENFANMKKKAKIGIHHKNSPPKVTVPTSGNTIESPLHENISNSTSFKDEKIMETDSEPEEGEITDSQTEDSYDEAITSEGNVTAEDSEDEDEDKIWPPCIRVIVIRSPVLQIGSLFIITAVNPATIGREKDMEHTLRIPEVGVSKFHAEIYFDHDLQSYVLVDQGSQNGTIVNGKQILQPKTKCDPYVLEHGDEVKIGETVLSFHIHPGSDTCDGCEPGQVRAHLRLDKKDESFVGPTLSKEEKELERRKELKKIRVKYGLQNTEYEDEKTLKNPKYKDRAGKRREQVGSEGTFQRDDAPASVHSEITDSNKGRKMLEKMGWKKGEGLGKDGGGMKTPIQLQLRRTHAGLGTGKPSSFEDVHLLQNKNKKNWDKARERFTENFPETKPQKDDPGTMPWVKGTLE
modifications: His tag
[1]; TAC, 0.5 mg/kg i.p., day 21
  ascending aortic expansion (FIG. 5): significantly inhibit
  vascular thickening (H&E staining, ascending aorta, FIG. 5): significantly inhibit
[1]; [4]
  vascular expansion (right carotid artery, FIG. 3): significantly inhibit
  vascular remodeling (right carotid artery, FIG. 3): significantly inhibit
[1]; after TAC vs buffer, 0.5 mg/kg i.p., day 21
  vascular inflammation (MCP-1, CD68; right carotid artery, FIG. 4): significantly inhibit
[1]; [5]
  inflammation of the ascending aorta (FIG. 6): inhibited
  remodeling of the ascending aorta (FIG. 6): inhibited
[1]; [6]
  level of the mature TGFβ1 (Western blot, RCA, FIG. 4): inhibit
  p-ERK1/2 (Western blot, RCA, FIG. 4): inhibit
  p-Smad3 (Western blot, RCA, FIG. 4): inhibit
[1]; sham group, 0.5 mg/kg i.p. once every 2 days for 3 weeks
  effect on the carotid artery and aorta: little effect
[2]
  interaction of integrin α7 with LAP-TGF-β1 (LAP-TGF-β1-GFP/α7-FLAG ratio): enhances
[3]; i.p. from week 10 to week 18, ultrasound at week 18
  expansion of the ascending aorta: significantly inhibit
[3]; week 18
  increase in αSMA/CD68/MCP1 levels (immunostaining positive areas): significantly inhibit
  level of mature TGFβ1 (Western blot, ascending aorta): inhibited
  p-ERK (Western blot, ascending aorta): inhibited
  p-Smad2 (Western blot, ascending aorta): inhibited
  p-Smad3 (Western blot, ascending aorta): inhibited
  thickening of the vascular media: significantly inhibit
